The values that follow come from patent US20220298235A1 (AKESO BIOPHARMA, published 2022).

The target of test [1] is T1, Human IL12 (His Tag) (human, UniProt P29459 23-219; P29460 23-328).
T1 construct: Bought His-tagged heterodimer
T1 sequence (looked up) 1: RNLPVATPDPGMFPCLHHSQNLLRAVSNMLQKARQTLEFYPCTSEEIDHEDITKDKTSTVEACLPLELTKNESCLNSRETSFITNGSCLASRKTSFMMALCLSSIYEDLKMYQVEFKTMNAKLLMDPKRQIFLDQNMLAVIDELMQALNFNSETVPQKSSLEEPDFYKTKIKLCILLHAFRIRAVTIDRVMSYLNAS
T1 sequence (looked up) 2: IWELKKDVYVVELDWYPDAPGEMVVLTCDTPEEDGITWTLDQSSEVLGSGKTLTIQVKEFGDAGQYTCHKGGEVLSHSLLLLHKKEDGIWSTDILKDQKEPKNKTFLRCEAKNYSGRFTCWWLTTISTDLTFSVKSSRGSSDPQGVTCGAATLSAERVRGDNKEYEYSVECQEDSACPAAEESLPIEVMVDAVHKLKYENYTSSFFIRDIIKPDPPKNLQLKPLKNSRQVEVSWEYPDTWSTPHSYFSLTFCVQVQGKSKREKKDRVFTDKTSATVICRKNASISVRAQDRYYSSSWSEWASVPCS
The test is described as follows: FACS competition, IL-12-His 20 nM on 293T-IL-12Rβ1&IL-23R cells; antibody 1.11 µg/mL. The protocol: (§1) 200 μL of 1% PBSA was added into each sample, and the mixture was centrifuged at 700×g for 5 min to discard the supernatant. According to experiment design, correspondingly diluted antibody (highest final concentration of 30 μg/mL, 3-fold dilution, 8 concentrations in total) and human IL-12 (Sino Biological, Cat. No.: CT-050-H08H-20) (final concentration of 20 nM) were mixed at a ratio of 1:1, and a blank control was set. The mixture of antibody and human IL12 was incubated on ice for 30 min and then added to the cell precipitate at 100 μL/sample. The resulting mixture was well mixed and incubated on ice for 60 min 200 μL of 1% PBSA was added, and the mixture was centrifuged at 700×g for 5 min to discard the supernatant, and then washed twice. Alexa Fluor® 488 anti-His tag antibody (Biolegend, Cat. No.: 652509) was diluted at a ratio of 1:400 and added to each tube at 100 μL. The mixture was well mixed and incubated on ice for 40 min in the absence of light. 200 μL of 1% PBSA was added, and the mixture was centrifuged at 700×g for 5 min to discard the supernatant, and then washed twice. 1% PBSA was added at 200 μL/tube, and the cells were resuspended and transferred to a flow cytometry tube for testing.

In test [2] the target is T1, Human IL12 (His Tag). In words: FACS competition, IL-12-His 20 nM on 293T-IL-12Rβ1&IL-23R cells. The protocol:
as §1

The target of test [3] is T2, human IL-23 (IL-23-His-Biotin) (human, UniProt Q9NPF7 20-189; P29460 23-328, biotin label, site not stated).
T2 construct: Akesobio lot 20161209; His-tagged and biotinylated
T2 sequence (looked up) 1: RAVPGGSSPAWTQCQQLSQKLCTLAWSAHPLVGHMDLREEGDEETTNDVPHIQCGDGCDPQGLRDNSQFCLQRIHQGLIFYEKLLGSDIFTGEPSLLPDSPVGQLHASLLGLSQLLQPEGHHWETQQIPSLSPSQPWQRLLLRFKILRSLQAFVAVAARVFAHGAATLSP
T2 sequence (looked up) 2: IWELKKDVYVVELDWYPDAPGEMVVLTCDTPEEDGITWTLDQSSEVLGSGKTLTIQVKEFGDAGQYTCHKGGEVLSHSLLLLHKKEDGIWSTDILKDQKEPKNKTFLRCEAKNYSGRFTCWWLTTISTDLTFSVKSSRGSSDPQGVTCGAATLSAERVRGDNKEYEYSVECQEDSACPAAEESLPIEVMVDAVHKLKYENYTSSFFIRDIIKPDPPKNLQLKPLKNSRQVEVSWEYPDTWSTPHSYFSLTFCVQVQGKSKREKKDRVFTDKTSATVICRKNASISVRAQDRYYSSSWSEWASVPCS
The test is described as follows: FACS competition, IL-23-His-Biotin 2 µg/mL on 293T-IL-12Rβ1&IL-23R cells; antibody 10 µg/mL. As for the experimental part: 200 μL of 1% PBSA was added into each sample, and the mixture was centrifuged at 700×g for 5 min to discard the supernatant. According to experiment design, correspondingly diluted antibody (highest final concentration of 30 μg/mL, 3-fold dilution, 8 concentrations in total) and human IL-23 (IL-23-His-Biotin, Akesobio, 20161209) (final concentration of 2 μg/mL) were mixed at a ratio of 1:1, and a blank control was set. The mixture of antibody and human IL23 was incubated on ice for 30 min and then added to the cell precipitate at 100 μL/sample. The resulting mixture was well mixed and incubated on ice for 60 min. 200 μL of 1% PBSA was added, and the mixture was centrifuged at 700×g for 5 min to discard the supernatant, and then washed twice. FITC Steptavidin (Biolegend, Cat. No.: 405202) was diluted at a ratio of 1:500 and added to each tube at 100 μL. The mixture was well mixed and incubated on ice for 40 min in the absence of light. 200 μL of 1% PBSA was added, and the mixture was centrifuged at 700×g for 5 min to discard the supernatant, and then washed twice. 1% PBSA was added at 200 μL/tube, and the cells were resuspended and transferred to a flow cytometry tube for testing.

Test [4] has as its target T1, Human IL12 (His Tag). The test is described as follows: FACS competition, IL-12-His 20 nM on 293T-IL-12Rβ1&IL-23R cells; antibody 0.12 µg/mL. As for the experimental part: as §1
The target in test [5] is T3, human p40-His (human, UniProt P29460 23-328).
T3 construct: Made by Akeso Biopharma; construct limits and tag not described; also called human IL-12/IL-23 p40 protein domain; human IL-12/IL-23 p40; not shown: His tag
T3 sequence (looked up): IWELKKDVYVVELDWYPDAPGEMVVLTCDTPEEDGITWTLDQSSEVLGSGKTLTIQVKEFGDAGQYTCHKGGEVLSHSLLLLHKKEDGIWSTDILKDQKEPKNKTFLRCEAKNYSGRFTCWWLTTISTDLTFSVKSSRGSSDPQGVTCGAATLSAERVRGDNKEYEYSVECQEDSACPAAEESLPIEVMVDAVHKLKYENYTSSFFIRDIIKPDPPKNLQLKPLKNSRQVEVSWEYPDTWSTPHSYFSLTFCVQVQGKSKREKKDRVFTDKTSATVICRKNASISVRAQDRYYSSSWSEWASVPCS
The test is described as follows: indirect ELISA, p40-His coat 0.125 µg/mL. The protocol: A microplate was coated with human p40-His (Akeso Biopharma, Inc.; gene of p40: GeneBank NM002187). After incubation at 4° C. for no less than 12 h, the plate was washed with PBST, patted dry and blocked with a solution of 1% BSA in PBS. After blocking was completed, the plate was washed with PBST and patted dry. The antibody diluted with PBST solution in gradient was added into the wells of the plate, and the antibody dilution gradient is detailed in Table 1. The plate containing the test antibody was incubated at 37° C. for 30 min and then washed with PBST and patted dry. […] TMB (Neogen, 308177) was added for color developing for 5 min in the absence of light, and then stop solution was added to terminate the chromogenic reaction. Then the plate was put into a plate reader immediately, and the OD value of each well in the plate was read at 450 nm. The data were analyzed by SoftMax Pro 6.2.1.
The detection results of the binding of antibodies H5L11, H5L12, H5L14 and Ab123FR1 to the antigen human p40-His are shown in FIG. 3. The binding EC₅₀ of antibody was calculated by curve fitting using antibody concentration as the abscissa and absorbance value as the ordinate, and the results are shown in Table 3 below.

B1: ustekinumab (antibody, V domains shown)
VH: EVQLVQSGAEVKKPGESLKISCKGSGYSFTTYWLGWVRQMPGKGLDWIGIMSPVDSDIRYSPSFQGQVTMSVDKSITTAYLQWNSLKASDTAMYYCARRRPGQGYFDFWGQGTLVTVSS
VL: DIQMTQSPSSLSASVGDRVTITCRASQGISSWLAWYQQKPEKAPKSLIYAASSLQSGVPSRFSGSGSGTDFTLTISSLQPEDFATYYCQQYNIYPYTFGQGTKLEIK
Consider B1, for which the figures for the MFI in test [1], in test [3] and in test [4] were 31.9 MFI, 11.5 MFI and 137 MFI, respectively. The same molecule registered an EC50 in test [2] of 0.377 µg/mL.

B2: H5L10 (antibody, human IgG1, kappa, V domains shown)
VH: EVQLVQSGAEVKKPGESLKISCQSSGYSFTTYWIGWVRQMPGQGLEWIGIMSPVDSDIRYNPMFRGQVTMSVDKSSSTAYLQWSSLKASDTAMYYCARRRPGQGYFDFWGQGTMVTVSS
VL: EIVLTQSPATLSASPGERATISCRASQSVGSWLAWYQQKPGQAPRSLIYAASNLQSGIPARFSGSGSGTDFTLTISSLEPEDFAVYYCQQYNIYPYTFGQGTRLEIKR
notes: human IgG1 / kappa constant regions; also called humanized antibody H5L10
Take B2: the MFI came out at 44.6 MFI in test [1], 12.7 MFI in test [3] and 151 MFI in test [4]. In addition, the EC50 in test [2] is 0.331 µg/mL.

B3: H5L9 (antibody, human IgG1, kappa, V domains shown)
VH: EVQLVQSGAEVKKPGESLKISCQSSGYSFTTYWIGWVRQMPGQGLEWIGIMSPVDSDIRYNPMFRGQVTMSVDKSSSTAYLQWSSLKASDTAMYYCARRRPGQGYFDFWGQGTMVTVSS
VL: DIQMTQSPSSLSASVGDRVTITCKASQNVGSWLAWYQQKPGKAPKSLIYSASSRQSGVPSRFSGSGSGTDFTLTISSLQPEDFATYYCQQYDIYPFTFGQGTKLEIKR
notes: human IgG1 (P01857) / kappa (P01834) constant regions; also called humanized antibody H5L9
For B3, the values for the MFI in test [1], in test [3] and in test [4] were 157 MFI, 136 MFI and 160 MFI, respectively.

B4: H5L12 (antibody, human IgG1, kappa, V domains shown)
VH: EVQLVQSGAEVKKPGESLKISCQSSGYSFTTYWIGWVRQMPGQGLEWIGIMSPVDSDIRYNPMFRGQVTMSVDKSSSTAYLQWSSLKASDTAMYYCARRRPGQGYFDFWGQGTMVTVSS
VL: EIVLTQSPATLSASPGERATISCRASQSVSSWLAWYQQKPGQAPRSLIYAASNRQSGIPARFSGSGSGTDFTLTISSLEPEDFAVYYCQQYNIYPYTFGQGTRLEIKR
notes: human IgG1 / kappa constant regions; also called humanized antibody H5L12
Turning to B4, the values for the MFI in test [1], in test [3] and in test [4] were 38.5 MFI, 12.7 MFI and 133 MFI, respectively. Further, the EC50 in test [2] stood at 0.317 µg/mL; in test [5], 82 pM.

B5: H5L14 (antibody, human IgG1, kappa, V domains shown)
VH: EVQLVQSGAEVKKPGESLKISCQSSGYSFTTYWIGWVRQMPGQGLEWIGIMSPVDSDIRYNPMFRGQVTMSVDKSSSTAYLQWSSLKASDTAMYYCARRRPGQGYFDFWGQGTMVTVSS
VL: EIVLTQSPATLSASPGERATISCRASQSVSSWLAWYQQKPGQAPRSLIYAASNLQSGIPARFSGSGSGTDFTLTISSLEPEDFAVYYCQQYNIYPFTFGQGTRLEIKR
notes: human IgG1 / kappa constant regions; also called humanized antibody H5L14
B5: the values for the MFI in test [1], in test [3] and in test [4] were 66 MFI, 16.7 MFI and 146 MFI, respectively. For the same molecule, the half-maximal effective concentration (EC50) worked out at 0.532 µg/mL in test [2] and 107 pM in test [5].

B6: H5L11 (antibody, human IgG1, kappa, V domains shown)
VH: EVQLVQSGAEVKKPGESLKISCQSSGYSFTTYWIGWVRQMPGQGLEWIGIMSPVDSDIRYNPMFRGQVTMSVDKSSSTAYLQWSSLKASDTAMYYCARRRPGQGYFDFWGQGTMVTVSS
VL: EIVLTQSPATLSASPGERATISCRASQSVSSWLAWYQQKPGQAPRSLIYSASNLQSGIPARFSGSGSGTDFTLTISSLEPEDFAVYYCQQYNIYPYTFGQGTRLEIKR
notes: human IgG1 / kappa constant regions; also called humanized antibody H5L11
B6: the values for the MFI in test [1], in test [3] and in test [4] were 54.3 MFI, 14.5 MFI and 145 MFI, respectively. The concentration giving a half-maximal response (EC50) in test [2] came to 0.414 µg/mL; in test [5], 82 pM.
